B1: Ribonuclease, P00648 (parent)
chain: MMKMEGIALKKRLSWISVCLLVLVSAAGMLFSTAAKTETSSHKAHTEAQVINTFDGVADYLQTYHKLPDNYITKSEAQALGWVASKGNLADVAPGKSIGGDIFSNREGKLPGKSGRTWREADINYTSGFRNSDRILYSSDWLIYKTTDHYQTFTKIR

Variants of: B1
Details: Bacillus amyloliquefaciens; pH 6.3; 25 °C; Urea; Fluorescence; MES 50 mM; reversible: yes; structure 1BNI; whole UniProt chain shown

Variant | ddG of mutation (higher = less stable) [kcal/mol] | denaturant m value [kcal/mol/M] | denaturant midpoint (higher = more stable) [M] | unfolding free energy [kcal/mol]
MMKMEGIALKKRLSWISVCLLVLVSAAGMLFSTAAKTETSSHKAHTEAQVINTFAGVAAYLQTYHKLPDNYITKSEAQALGWVASKGNLADVAPGKSIGGDIFSNREGKLPGKSGRTWREADINYTSGFRNSDRILYSSDWLIYKTTDHYQTFTKIA [D55A D59A R157A] | -0.11 | 2.16 | 4.63 | 10
MMKMEGIALKKRLSWISVCLLVLVSAAGMLFSTAAKTETSSHKAHTEAQVINTFDGVAAYLQTYHKLPDNYITKSEAQALGWVASKGNLADVAPGKSIGGDIFSNREGKLPGKSGRTWREADINYTSGFRNSDRILYSSDWLIYKTTDHYQTFTKIR [D59A] | 0.34 | 2.12 | 4.42 | 9.59
MMKMEGIALKKRLSWISVCLLVLVSAAGMLFSTAAKTETSSHKAHTEAQVINTFAGVAAYLQTYHKLPDNYITKSEAQALGWVASKGNLADVAPGKSIGGDIFSNREGKLPGKSGRTWREADINYTSGFRNSDRILYSSDWLIYKTTDHYQTFTKIR [D55A D59A] | 0.89 | 1.98 | 4.16 | 9.04
MMKMEGIALKKRLSWISVCLLVLVSAAGMLFSTAAKTETSSHKAHTEAQVINTFAGVADYLQTYHKLPDNYITKSEAQALGWVASKGNLADVAPGKSIGGDIFSNREGKLPGKSGRTWREADINYTSGFRNSDRILYSSDWLIYKTTDHYQTFTKIR [D55A] | 0.99 | 2.15 | 4.12 | 8.94
MMKMEGIALKKRLSWISVCLLVLVSAAGMLFSTAAKTETSSHKAHTEAQVINTFDGVADYLQTYHKLPDNYITKSEAQALGWVASKGNLADVAPGKSIGGDIFSNREGKLPGKSGRTWREADINYTSGFRNSDRILYSSDWLIYKTTDHYQTFTKIA [R157A] | 0.46 | 2.26 | 4.37 | 9.47
MMKMEGIALKKRLSWISVCLLVLVSAAGMLFSTAAKTETSSHKAHTEAQVINTFDGVAAYLQTYHKLPDNYITKSEAQALGWVASKGNLADVAPGKSIGGDIFSNREGKLPGKSGRTWREADINYTSGFRNSDRILYSSDWLIYKTTDHYQTFTKIA [D59A R157A] | -0.45 | 2.14 | 4.78 | 10.4
MMKMEGIALKKRLSWISVCLLVLVSAAGMLFSTAAKTETSSHKAHTEAQVINTFAGVADYLQTYHKLPDNYITKSEAQALGWVASKGNLADVAPGKSIGGDIFSNREGKLPGKSGRTWREADINYTSGFRNSDRILYSSDWLIYKTTDHYQTFTKIA [D55A R157A] | 0.47 | 1.96 | 4.36 | 9.46
